# From patent US20250152742A1, “COMPOSITIONS AND METHODS FOR NEUROLOGICAL DISEASES” (Trames Bio, Inc., priority 2022, published 2025)
# B1: CODA1045: engineered receptor: R101W, Y210V in SEQ ID NO: 33 (protein)
# chain: MRCSPGGVWLALAASLLHVSLQGEFQRKLYKELVKNYNPLERPVANDSQPLTVYFSLSLLQIMDVDEKNQVLTTNIWLQMSWTDHYLQWNVSEYPGVKTVWFPDGQIWKPDILLYNSADERFDATFHTNVLVNSSGHCQYLPPGIFKSSCPMDLKNFPMDVQTCKLKFGSWSYGGWSLDLQMQEADISGYIPNGEWDLVGIPGKRSERFVECCKEPYPDVTFTVTMRRRMGYYLIQMYIPSLLIVILSWISFWINMDAAPARVGLGITTVLTMTTQSSGSRASLPKVSYVKAIDIWMAVCLLFVFSALLEYAAVNFVSRQHKELLRFRRKRRHHKSPMLNLFQEDEAGEGRFNFSAYGMGPACLQAKDGISVKGANNSNTTNPPPAPSKSPEEMRKLFIQRAKKIDKISRIGFPMAFLIFNMFYWIIYKIVRREDVHNQ
# modifications: synthetic sequence of chimeric LGIC
# Tested on: engineered chimeric receptor SEQ ID NO: 33 and its mutants (human α7-nAChR ligand binding domain / human GlyRα1 ion pore domain) in Lenti-X 293T cells
# Assay: YFP fluorescence quenching anion reporter plate reader assay (percent quench, EC50)
# Format: cell-based
# Conditions: for YFP fluorescence quenching using CNL001 (percent quench): receptor named in row; for YFP fluorescence quenching using Varenicline, 3 nM var: ligand Varenicline 3 nM; for YFP fluorescence quenching using Varenicline, 30 nM var: ligand Varenicline 30 nM; for YFP fluorescence quenching using Varenicline, 300 nM var: ligand Varenicline 300 nM; for YFP fluorescence quenching using Varenicline, 500 nM var: ligand Varenicline 500 nM; for YFP fluorescence quenching using Varenicline, 1 uM var: ligand Varenicline 1 uM
# How it was run: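 Lenti-X 293T cells co-expressing an anion-quenchable YFP were transiently transfected with receptor DNA, then ligand was added in NaI-substituted buffer (pH 7.2) after 30 min at 37 °C. Fluorescence was read about 2 min; percent quench = mean of last 10 s over 15 s pre-ligand baseline.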
molecule,measurement,setting,value
B1,YFP fluorescence quenching using CNL001 (percent quench),"1 nM CNL001, first column so headed",0.804%
same,YFP fluorescence quenching using CNL001 (percent quench),"1 nM CNL001, second column so headed",11.275%
same,YFP fluorescence quenching using TC-5619/Bradanicline (percent quench),1 nM brd (TC-5619/Bradanicline),−1.431%
same,YFP fluorescence quenching using TC-5619/Bradanicline (percent quench),3 nM brd (TC-5619/Bradanicline),−14.993%
same,YFP fluorescence quenching using CNL001 (percent quench),"10 nM CNL001, first column so headed",15.843%
same,YFP fluorescence quenching using CNL001 (percent quench),"10 nM CNL001, second column so headed",16.619%
same,YFP fluorescence quenching using TC-5619/Bradanicline (percent quench),10 nM brd (TC-5619/Bradanicline),−5.52%
same,YFP fluorescence quenching using TC-6683 (percent quench),30 nM TC-6683,1.735%
same,YFP fluorescence quenching using TC-5619/Bradanicline (percent quench),30 nM brd (TC-5619/Bradanicline),15.49%
same,YFP fluorescence quenching using CNL001 (percent quench),"50 nM CNL001, first column so headed",15.205%
same,YFP fluorescence quenching using CNL001 (percent quench),"50 nM CNL001, second column so headed",18.771%
same,YFP fluorescence quenching using ABT-126 (percent quench),50 nM abt (ABT-126),−24.16%
same,YFP fluorescence quenching using CNL001 (percent quench),"100 nM CNL001, first column so headed",9.332%
same,YFP fluorescence quenching using CNL001 (percent quench),"100 nM CNL001, second column so headed",18.218%
same,YFP fluorescence quenching using ABT-126 (percent quench),100 nM abt (ABT-126),−24.7%
same,YFP fluorescence quenching using TC-5619/Bradanicline (percent quench),100 nM brd (TC-5619/Bradanicline),72.105%
same,YFP fluorescence quenching using TC-6683 (percent quench),300 nM TC-6683,0.642%
same,YFP fluorescence quenching using ABT-126 (percent quench),300 nM abt (ABT-126),−16.09%
same,YFP fluorescence quenching using TC-5619/Bradanicline (percent quench),300 nM brd (TC-5619/Bradanicline),71.411%
same,YFP fluorescence quenching using CNL001 (percent quench),"1 uM CNL001, first column so headed",35.294%
same,YFP fluorescence quenching using CNL001 (percent quench),"1 uM CNL001, second column so headed",36.542%
same,YFP fluorescence quenching using ABT-126 (percent quench),1 uM abt (ABT-126),−11.61%
same,YFP fluorescence quenching using TC-6683 (percent quench),3 uM TC-6683,2.403%
same,YFP fluorescence quenching (percent quench),10 uM ach (acetylcholine),−2.52%
same,YFP fluorescence quenching using TC-6683 (percent quench),30 uM TC-6683,6.006%
same,YFP fluorescence quenching using TC-6683 (percent quench),100 uM TC-6683,−4.277%
same,YFP fluorescence quenching (percent quench),100 uM ach (acetylcholine),−11.98%
same,YFP fluorescence quenching (percent quench),300 uM ach (acetylcholine),−16.71%
same,YFP fluorescence quenching (percent quench),500 uM ach (acetylcholine),−12.87%
same,YFP fluorescence quenching (percent quench),1 mM ach (acetylcholine),−14.41%
same,YFP fluorescence quenching (percent quench),3 mM ach (acetylcholine),−7.4%
same,YFP fluorescence quenching (percent quench),10 mM ach (acetylcholine),−1.5%
same,"YFP fluorescence quenching using Varenicline, 3 nM var",first column,6.745
same,"YFP fluorescence quenching using Varenicline, 3 nM var",second column,8.397
same,"YFP fluorescence quenching using Varenicline, 30 nM var",first column,14.1
same,"YFP fluorescence quenching using Varenicline, 30 nM var",second column,19.095
same,"YFP fluorescence quenching using Varenicline, 300 nM var",first column,16.83
same,"YFP fluorescence quenching using Varenicline, 300 nM var",second column,21.507
same,"YFP fluorescence quenching using Varenicline, 500 nM var",first column,21.586
same,"YFP fluorescence quenching using Varenicline, 500 nM var",second column,23.131
same,"YFP fluorescence quenching using Varenicline, 1 uM var",first column,31.591
same,"YFP fluorescence quenching using Varenicline, 1 uM var",second column,26.479
